The values that follow come from patent US20260070987A1.

The assay concerns the target equine FcRn (large alpha subunit p51) / equine beta-2-microglobulin complex, biotinylated (equine) (UniProt P30441). As to the kind of experiment: SPR (Biacore), pH 6. For orientation: Surface plasmon resonance follows binding to a sensor surface in real time, without labels.

Numbering of substitutions follows the chain as printed. Names may count otherwise.

Sequence of UniProt P30441 (P30441 21-118, one chain of several): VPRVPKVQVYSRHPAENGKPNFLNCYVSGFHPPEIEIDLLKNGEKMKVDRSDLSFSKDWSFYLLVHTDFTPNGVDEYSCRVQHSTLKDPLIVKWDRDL

B1: equine IgG1 T286R (antibody, part only; not given: variable domains, not shown: another chain or arm of the molecule)
constant: ASTTAPKVFALAPGCGTTSDSTVALGCLVSGYFPEPVKVSWNSGSLTSGVHTFPSVLQSSGFYSLSSMVTVPASTWTSETYICNVVHAASNFKVDKRIEPIPDNHQKVCDMSKCPKCPAPELLGGPSVFIFPPNPKDTLMITRTPEVTCVVVDVSQENPDVKFNWYMDGVEVRRATTRPKEEQFNSTYRVVSVLRIQHQDWLSGKEFKCKVNNQALPQPIERTITKTKGRSQEPQVYVLAPHPDELSKSKVSVTCLVKDFYPPEINIEWQSNGQPELETKYSTTQAQQDSDGSYFLYSKLSVDRNRWQQGTTFTCGVMHEALHNHYTQKNVSKNPGK
For orientation: Kd means a measure of binding affinity in units of concentration. Molecule B1 gave a Kd of 20.5 nM.

B2: equine IgG1 T286V (antibody, part only; not given: Variable domains, not shown: another chain or arm of the molecule)
constant: B1 constant with R174V
On to B2, for which the dissociation constant Kd came out at 16.2 nM.

B3: equine IgG1 T286S (antibody, part only; not given: Variable domains, not shown: another chain or arm of the molecule)
constant: B1 constant with R174S
Regarding B3, the Kd was 13.1 nM.

B4: equine IgG4 N434R (antibody, part only; not given: variable domains, not shown: another chain or arm of the molecule)
constant: ASTTAPKVFPLASHSAATSGSTVALGCLVSSYFPEPVTVSWNSGALTSGVHTFPSVLQSSGLYSLSSMVTVPASSLKSQTYICNVAHPASSTKVDKKIVIKECNGGCPAECLQVGPSVFIFPPKPKDVLMISRTPTVTCVVVDVGHDFPDVQFNWYVDGVETHTATTEPKQEQFNSTYRVVSVLPIQHKDWLSGKEFKCKVNNKALPAPVERTISKPTGQPREPQVYVLAPHRDELSKNKVSVTCLVKDFYPTDIDIEWKSNGQPEPETKYSTTPAQLDSDGSYFLYSKLTVETNRWQQGTTFTCAVMHEALHRHYTEKSVSKSPGK
B4 gave an equilibrium dissociation constant (Kd) of 22.7 nM.

B5: equine IgG4 D312I (antibody, part only; not given: Variable domains, not shown: another chain or arm of the molecule)
constant: B4 constant with D190I, R314N
Turning to B5, the dissociation constant Kd came to 29.4 nM.

B6: equine IgG4 D312T (antibody, part only; not given: variable domains, not shown: another chain or arm of the molecule)
constant: B4 constant with D190T, R314N
Consider B6, for which the Kd is 28.7 nM.

B7: equine IgG4 N434S (antibody, part only; not given: variable domains, not shown: another chain or arm of the molecule)
constant: B4 constant with R314S
Molecule B7 gave a dissociation constant (Kd) of 23.8 nM.

B8: equine IgG4 Y436D (antibody, part only; not given: variable domains, not shown: another chain or arm of the molecule)
constant: B4 constant with R314N, Y316D
Consider B8, for which the Kd is 25.5 nM.

B9: equine IgG4 Y436C (antibody, part only; not given: Variable domains, not shown: another chain or arm of the molecule)
constant: B4 constant with R314N, Y316C
In the case of B9, the Kd is 57 nM.

B10: equine IgG4 Y436M (antibody, part only; not given: variable domains, not shown: another chain or arm of the molecule)
constant: B4 constant with R314N, Y316M
For B10, the Kd was 14.3 nM.

B11: equine IgG4 Y436L (antibody, part only; not given: variable domains, not shown: another chain or arm of the molecule)
constant: B4 constant with R314N, Y316L
For B11, the Kd is 16 nM.

B12: equine IgG4 D312L (antibody, part only; not given: variable domains, not shown: another chain or arm of the molecule)
constant: B4 constant with D190L, R314N
B12 yielded a Kd of 11.6 nM.

B13: equine IgG4 N434T (antibody, part only; not given: variable domains, not shown: another chain or arm of the molecule)
constant: B4 constant with R314T
With B13, the Kd was 57.5 nM.

B14: equine IgG4 D312H (antibody, part only; not given: Variable domains, not shown: another chain or arm of the molecule)
constant: B4 constant with D190H, R314N
For the molecule B14, the Kd came out at 20.2 nM.

B15: equine IgG4 Y436E (antibody, part only; not given: variable domains, not shown: another chain or arm of the molecule)
constant: B4 constant with R314N, Y316E
In turn, B15 registered a Kd of 91.5 nM.

B16: equine IgG4 Y436G (antibody, part only; not given: variable domains, not shown: another chain or arm of the molecule)
constant: B4 constant with R314N, Y316G
For B16, the Kd came out at 34.1 nM.

B17: equine IgG4 Y436N (antibody, part only; not given: variable domains, not shown: another chain or arm of the molecule)
constant: B4 constant with R314N, Y316N
The molecule B17 returned a dissociation constant (Kd) of 49.8 nM.

B18: equine IgG4 N434Y (antibody, part only; not given: variable domains, not shown: another chain or arm of the molecule)
constant: B4 constant with R314Y
For the molecule B18, the Kd worked out at 4.6 nM.

B19: equine IgG4 D312S (antibody, part only; not given: variable domains, not shown: another chain or arm of the molecule)
constant: B4 constant with D190S, R314N
The molecule B19 registered a Kd of 17.4 nM.

B20: equine IgG4 N434W (antibody, part only; not given: variable domains, not shown: another chain or arm of the molecule)
constant: B4 constant with R314W
The molecule B20 came in with a Kd of 1.6 nM.

B21: equine IgG4 D312R (antibody, part only; not given: variable domains, not shown: another chain or arm of the molecule)
constant: B4 constant with D190R, R314N
In turn, B21 came in with a Kd of 18.5 nM.

B22: equine IgG4 D312C (antibody, part only; not given: variable domains, not shown: another chain or arm of the molecule)
constant: B4 constant with D190C, R314N
Regarding B22, the Kd is 27.1 nM.

B23: equine IgG4 D312E (antibody, part only; not given: variable domains, not shown: another chain or arm of the molecule)
constant: B4 constant with D190E, R314N
The molecule B23 returned a Kd of 50.2 nM.

B24: equine IgG4 D312W (antibody, part only; not given: Variable domains, not shown: another chain or arm of the molecule)
constant: B4 constant with D190W, R314N
In turn, B24 yielded a Kd of 12.1 nM.

B25: equine IgG4 Y436F (antibody, part only; not given: variable domains, not shown: another chain or arm of the molecule)
constant: B4 constant with R314N, Y316F
For B25, the Kd was determined as 12.6 nM.

B26: equine IgG4 D312F (antibody, part only; not given: variable domains, not shown: another chain or arm of the molecule)
constant: B4 constant with D190F, R314N
In turn, B26 displayed a Kd of 23 nM.

B27: equine IgG4 D312V (antibody, part only; not given: variable domains, not shown: another chain or arm of the molecule)
constant: B4 constant with D190V, R314N
In the case of B27, the Kd amounted to 31.1 nM.

B28: equine IgG4 D312A (antibody, part only; not given: variable domains, not shown: another chain or arm of the molecule)
constant: B4 constant with D190A, R314N
As to B28, the Kd is 13.1 nM.

B29: equine IgG4 D312N (antibody, part only; not given: variable domains, not shown: another chain or arm of the molecule)
constant: B4 constant with D190N, R314N
B29 gave a Kd of 16.1 nM.

B30: equine IgG4 D312M (antibody, part only; not given: variable domains, not shown: another chain or arm of the molecule)
constant: B4 constant with D190M, R314N
B30: the dissociation constant Kd came out at 25 nM.

B31: equine IgG4 Y436I (antibody, part only; not given: variable domains, not shown: another chain or arm of the molecule)
constant: B4 constant with R314N, Y316I
As for B31, the equilibrium dissociation constant (Kd) was found to be 12 nM.

B32: equine IgG4 Y436K (antibody, part only; not given: variable domains, not shown: another chain or arm of the molecule)
constant: B4 constant with R314N, Y316K
Take B32: the Kd amounted to 20.3 nM.

B33: equine IgG4 D312Y (antibody, part only; not given: variable domains, not shown: another chain or arm of the molecule)
constant: B4 constant with D190Y, R314N
The molecule B33 came in with a Kd of 19.1 nM.

B34: equine IgG4 N434V (antibody, part only; not given: Variable domains, not shown: another chain or arm of the molecule)
constant: B4 constant with R314V
For the molecule B34, the Kd came to 32.6 nM.

B35: equine IgG4 D312G (antibody, part only; not given: variable domains, not shown: another chain or arm of the molecule)
constant: B4 constant with D190G, R314N
With B35, the Kd amounted to 11.2 nM.

B36: equine IgG4 Y436A (antibody, part only; not given: variable domains, not shown: another chain or arm of the molecule)
constant: B4 constant with R314N, Y316A
With B36, the Kd is 21.6 nM.

B37: equine IgG4 Y436H (antibody, part only; not given: variable domains, not shown: another chain or arm of the molecule)
constant: B4 constant with R314N, Y316H
B37 yielded a Kd of 61.6 nM.

B38: equine IgG4 D312Q (antibody, part only; not given: variable domains, not shown: another chain or arm of the molecule)
constant: B4 constant with D190Q, R314N
B38 gave a Kd of 28.1 nM.

B39: equine IgG4 D312P (antibody, part only; not given: Variable domains, not shown: another chain or arm of the molecule)
constant: B4 constant with D190P, R314N
As for B39, the Kd turned out to be 15.1 nM.

B40: equine IgG4 D312K (antibody, part only; not given: variable domains, not shown: another chain or arm of the molecule)
constant: B4 constant with D190K, R314N
Consider B40, for which the Kd was 13.6 nM.
